Source: publication PMC10656488 (2023)

Target: HSPA5 protein (wild type, in vitro systems, ITC and SPR) (UniProt P20029 20-655)
Assay: ITC

HSPA5 protein (wild type, in vitro systems, ITC and SPR), sequence (P20029 20-655): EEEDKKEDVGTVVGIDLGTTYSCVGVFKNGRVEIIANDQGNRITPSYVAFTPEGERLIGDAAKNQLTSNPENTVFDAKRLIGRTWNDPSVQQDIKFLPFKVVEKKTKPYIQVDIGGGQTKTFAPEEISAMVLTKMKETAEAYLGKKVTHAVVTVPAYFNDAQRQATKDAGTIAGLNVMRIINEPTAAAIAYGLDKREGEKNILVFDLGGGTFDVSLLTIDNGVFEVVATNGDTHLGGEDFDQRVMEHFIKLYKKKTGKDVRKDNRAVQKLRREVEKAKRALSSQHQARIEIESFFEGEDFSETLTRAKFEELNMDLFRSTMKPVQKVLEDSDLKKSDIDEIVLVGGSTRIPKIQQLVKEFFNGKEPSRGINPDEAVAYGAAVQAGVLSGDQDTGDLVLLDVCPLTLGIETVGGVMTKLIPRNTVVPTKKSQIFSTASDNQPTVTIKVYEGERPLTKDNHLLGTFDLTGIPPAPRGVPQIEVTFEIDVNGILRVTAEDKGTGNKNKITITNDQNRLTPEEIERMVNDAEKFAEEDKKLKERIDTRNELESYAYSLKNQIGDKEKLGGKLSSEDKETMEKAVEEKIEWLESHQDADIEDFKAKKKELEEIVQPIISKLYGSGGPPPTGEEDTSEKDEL

Row | Binder | Kd
1 | ATAT1 protein (in vitro acetylation system, ITC and SPR) (enzyme) MEFPFDVDALFPERITVLDQHLRPPARRPGTTTPARVDLQQQIMTIVDELGKASAKAQHLPAPITSALRMQSNRHVIYILKDTSARPAGKGAIIGFLKVGYKKLFVLDDREAHNEVEPLCILDFYIHESVQRHGHGRELFQHMLQKERVEPHQLAIDRPSPKLLKFLNKHYNLETTVPQVNNFVIFEGFFAHQHRPPTSSLRATRHSRAAVADPIPAAPARKLPPKRAEGDIKPYSSSDREFLKVAVEPPWPLNRAPRRATPPAHPPPRSSSLGNSPDRGPLRPFVPEQELLRSLRLCPPHPTARLLLATDPGGSPAQRRRTRGTPWGLVAQSCHYSRHGGFNTSFLGTGNQERKQGEQEAEDRSASEDRVLLLDGSGEEPTQTGAPRAQAPPPQSWTVGGDIMNARVIRNLQERRSTRPW | 110 nM
2 | SCNN1B protein (in vitro ubiquitination system, ITC and SPR) (natural protein) MPVKKYLLKCLHRLQKGPGYTYKELLVWYCNNTNTHGPKRIICEGPKKKAMWFLLTLLFACLVCWQWGVFIQTYLSWEVSVSLSMGFKTMNFPAVTVCNSSPFQYSKVKHLLKDLDELMEAVLEKILAPEASHSNTTRTLNFTIWNHTPLVLIDERNPDHPVVLNLFGDSHNSSNPAPGSTCNAQGCKVAMRLCSANGTVCTLRNFTSATQAVTEWYILQATNIFSQVLPQDLVGMGYAPDRIILACLFGTEPCSHRNFTPIFYPDYGNCYIFNWGMTEETLPSANPGTEFGLKLILDIGQEDYVPFLASTAGARLMLHEQRTYPFIREEGIYAMAGTETSIGVLVDKLQRKGEPYSPCTMNGSDVAIKNLYSVYNTTYSIQACLHSCFQDHMIRNCSCGHYLYPLPEGEKYCNNRDFPDWAYCYLNLQMSVTQRETCLSMCKESCNDTQYKMTISMADWPSEASEDWILHVLSQERDQSSNITLSRKGIVKLNIYFQEFNYRTIEESPANNIVWLLSNLGGQFGFWMGGSVLCLIEFGEIIIDFIWITIIKLVASCKGLRRRRPQAPYTGPPPTVAELVEAHTNFGFQPDTTSCRPHGEVYPDQQTLPIPGTPPPNYDSLRLQPLDTMESDSEVEAI | 860 nM
